Assay results taken from paper doi:10.1101/2024.09.19.613683 (bioRxiv, 2024).

B1: tail sheath protein of phage 812 (natural protein, Staphylococcus phage 812)
chain: MAVEPFPRRPITRPHASIEVDTSGIGGSAGSSEKVFCLIGQAEGGEPNTVYELRNYSQAKRLFRSGELLDAIELAWGSNPNYTAGRILAMRIEDAKPASAEIGGLKITSKIYGNVANNIQVGLEKNTLSDSLRLRVIFQDDRFNEVYDNIGNIFTIKYKGEEANATFSVEHDEETQKASRLVLKVGDQEVKSYDLTGGAYDYTNAIITDINQLPDFEAKLSPFGDKNLESSKLDKIENANIKDKAVYVKAVFGDLEKQTAYNGIVSFEQLNAEGEVPSNVEVEAGEESATVTATSPIKTIEPFELTKLKGGTNGEPPATWADKLDKFAHEGGYYIVPLSSKQSVHAEVASFVKERSDAGEPMRAIVGGGFNESKEQLFGRQASLSNPRVSLVANSGTFVMDDGRKNHVPAYMVAVALGGLASGLEIGESITFKPLRVSSLDQIYESIDLDELNENGIISIEFVRNRTNTFFRIVDDVTTFNDKSDPVKAEMAVGEANDFLVSELKVQLEDQFIGTRTINTSASIIKDFIQSYLGRKKRDNEIQDFPAEDVQVIVEGNEARISMTVYPIRSFKKISVSLVYKQQTLQA

Columns and labels:
[1] = target: B1; test: cryo-EM structure
cryo-EM structure = target: the molecule itself; test: cryo-EM structure

| Binder | binding result [1] | binding result (cryo-EM structure) |
| --- | --- | --- |
| tail tube protein of phage 812 (natural protein, Staphylococcus phage 812) MASEAKQTVHTGNTVLLMIKGKPVGRAQSASGQREYGTTGVYEIGSIMPQEHVYLRYEGTITVERLRMKKENFADLGYASLGEEILKKDIIDILVVDNLTKQVIISYHGCSANNYNETWQTNEIVTEEIEFSYLTASDKART | binds |  |
| B1 |  | binds |
